PMC11965557 (Communications Biology, 2025)

B1: Varicella-Zoster virus ORF9 (VZV-ORF9) (natural protein)
chain: MASSDGDRLCRSNAVRRKTTPSYSGQYRTARRSVVVGPPDDSDDSLGYITTVGADSPSPVYADLYFEHKNTTPRVHQPNDSSGSEDDFEDIDEVVAAFREARLRHELVEDAVYENPLSVEKPSRSFTKNAAVKPKLEDSPKRAPPGAGAIASGRPISFSTAPKTATSSWCGPTPSYNKRVFCEAVRRVAAMQAQKAAEAAWNSNPPRNNAELDRLLTGAVIRITVHEGLNLIQAANEADLGEGASVSKRGHNRKTGDLQGGMGNEPMYAQVRKPKSRTDTQTTGRITNRSRARSASRTDTRK
modifications: AF488 NHS ester label
B2: Herpes simplex virus type 1 VP22 (HSV1-VP22) (natural protein)
chain: MTSRRSVKSGPREVPRDEYEDLYYTPSSGMASPDSPPDTSRRGALQTRSRQRGEVRFVQYDESDYALYGGSSSEDDEHPEVPRTRRPVSGAVLSGPGPARAPPPPAGSGGAGRTPTTAPRAPRTQRVATKAPAAPAAETTRGRKSAQPESAALPDAPASTAPTRSKTPAQGLARKLHFSTAPPNPDAPWTPRVAGFNKRVFCAAVGRLAAMHARMAAVQLWDMSRPRTDEDLNELLGITTIRVTVCEGKNLLQRANELVNPDVVQDVDAATATRGRSAASRPTERPRAPARSASRPRRPVE
modifications: AF488 NHS ester label

Columns and labels:
[1] = target: cGAS-pMag (pMag fused to the C-terminus of full-length cGAS) (UniProt Q8N884); test: dcFCCS
[2] = target: Cyclic GMP-AMP synthase (cGAS), full-length (amino acids 1-522) (UniProt Q8N884 1-522); test: dcFCCS

Molecule	fold increase of the proportion forming heterodimer under blue light [1] [fold]	Kd [2] [nM]
nMagHigh1-ORF9 (nMagHigh1 fused to the N-terminus of VZV-ORF9)	5	–
nMagHigh1-ORF52 (nMagHigh1 fused to the N-terminus of KSHV-ORF52)	5	–
nMagHigh1-VP22 (nMagHigh1 fused to the N-terminus of HSV1-VP22)	5	–
B1	–	~2000
B2	–	~2000
